Experimental data: publication PMC12692543

Legend:
[1] = target: rhFrizzled-4/FC Chimera (human) (UniProt Q9ULV1); assay: ELISA; rhFrizzled-4/Fc coated on a 96-well plate overnight; Norrin preparations as extracted from bacteria, BEFORE refolding, serially diluted (0.8–500 ng/mL) in 1% BSA or casein in PBS, 2 h; detected with biotinylated Norrin antibody and streptavidin–HRP; result as percent of a comparison control (R&D Systems Norrin)
[2] = target: rhFrizzled-4/FC Chimera (human) (UniProt Q9ULV1); assay: ELISA; rhFrizzled-4/Fc coated on a 96-well plate overnight; Norrin preparations AFTER denaturation and refolding with disulfide reshuffling (GSH/GSSG, 1 M arginine), serially diluted (0.8–500 ng/mL) in 1% BSA or casein in PBS, 2 h; detected with biotinylated Norrin antibody and streptavidin–HRP; result as percent of a comparison control (R&D Systems Norrin)

Substance	percent of expected binding activity relative to comparison control (R&D Systems Norrin) [1] [%]	percent of expected binding activity relative to comparison control (R&D Systems Norrin) [2] [%]
MBP-linker-Norrin^K86P (intact, uncut fusion protein from plasmid construct Nor-w-Linker) (from UniProt Q00604 25-133)	7	94
Norrin^K86P released from MBP-linker-Norrin by HRV3C protease (from UniProt Q00604 25-133) (natural protein)	14	101
